The labels stand for the following.
B1: ATG8A (purified) (natural protein)
chain: MAKSSFKISNPLEARMSESSRIREKYPDRIPVIVEKAGQSDVPDIDKKKYLVPADLTVGQFVYVVRKRIKLGAEKAIFVFVKNTLPPTAALMSAIYEEHKDEDGFLYMTYSGENTFG

The assay “ATG8A (purified)” concerns the target B1. Nature of the assay: FP.
Another assay has as its target sAIM3. Nature of the assay: FP.
The next assay deals with cAIM mut. Nature of the assay: FP.
The next assay concerns the target GABARAP (purified) (human, UniProt O95166 3-116). The experiment in a line: ITC. (In general: Isothermal titration calorimetry measures the heat released or taken up as one component is titrated into another.)
The target of a further assay is HsUFM1 (purified) (human, UniProt P61960 1-85). Nature of the assay: ITC.
HsUFM1 (purified), sequence (P61960 whole entry): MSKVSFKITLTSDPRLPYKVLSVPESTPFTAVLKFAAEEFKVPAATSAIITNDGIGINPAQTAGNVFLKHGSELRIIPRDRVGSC

Six molecules from paper PMC10183829 (2023) can be followed below.

No end group written: not given here. TAMRA = 5(6)-carboxytetramethylrhodamine

GABARAP (purified), sequence (O95166 3-116): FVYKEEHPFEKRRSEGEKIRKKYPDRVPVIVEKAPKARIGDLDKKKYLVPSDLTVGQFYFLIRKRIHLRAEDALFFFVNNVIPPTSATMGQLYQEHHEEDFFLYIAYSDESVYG

A word on the Kd: it is the free concentration of one partner at which half of the binding sites on the other are occupied at equilibrium, for simple one-to-one binding. A high value points to weaker binding. Turning to {TAMRA}-AADSIDWDITVET [peptide derived from sAIM1 (AtC53 IDR)], binding with ATG8A (purified) was put at a Kd of 97.6 µM.

Turning to B1, the Kd in the assay with sAIM3 turned out to be 176 µM; with cAIM mut, 94.3 µM.

B2: HsC53 wt (purified) (natural protein)
chain: MEDHQHVPIDIQTSKLLDWLVDRRHCSLKWQSLVLTIREKINAAIQDMPESEEIAQLLSGSYIHYFHCLRILDLLKGTEASTKNIFGRYSSQRMKDWQEIIALYEKDNTYLVELSSLLVRNVNYEIPSLKKQIAKCQQLQQEYSRKEEECQAGAAEMREQFYHSCKQYGITGENVRGELLALVKDLPSQLAEIGAAAQQSLGEAIDVYQASVGFVCESPTEQVLPMLRFVQKRGNSTVYEWRTGTEPSVVERPHLEELPEQVAEDAIDWGDFGVEAVSEGTDSGISAEAAGIDWGIFPESDSKDPGGDGIDWGDDAVALQITVLEAGTQAPEGVARGPDALTLLEYTETRNQFLDELMELEIFLAQRAVELSEEADVLSVSQFQLAPAILQGQTKEKMVTMVSVLEDLIGKLTSLQLQHLFMILASPRYVDRVTEFLQQKLKQSQLLALKKELMVQKQQEALEEQAALEPKLDLLLEKTKELQKLIEADISKRYSGRPVNLMGTSL
On to B2, for which, in the assay with GABARAP (purified), the Kd was determined as 20.9 µM.

As to GPLHDDNEWNISVVDD [UBA5 LIR], binding with HsUFM1 (purified) was put at a Kd of 7.51 µM.

In the assay with ATG8A (purified), {TAMRA}-DLGSYEIVNASDI [peptide derived from the cAIM of the AtC53 IDR] showed a Kd of 62.5 µM.

For the molecule {TAMRA}-ETPEIDWDVSMVEEV [peptide derived from sAIM2 (AtC53 IDR)], the Kd in the assay with ATG8A (purified) was 56.8 µM.
